Test [1] concerns the target fibrin clots formed in human plasma (human (endogenous in plasma)) (UniProt P02679). The experiment in a line: co-sedimentation; time course: enhanced clots formed in plasma with 125I-ligand (25,000 cpm), eight times from 0 to 960 min at 37°C; washed three times with 10 mM HEPES, 70 mM NaCl, 0.5 mM EDTA, 5 M urea pH 7.4; what stays is judged covalently bound.
For test [2] the target is unchanged. In words: cross-linking; 125I-ligand (25,000 cpm) with 0.9% plasma and 20 μg fibrinogen in 50 μl HEPES-1/2-saline, 20 mM CaCl2, 16 h, 37°C; cross-linking by the FXIIIa of the plasma; washed clots on reducing SDS-PAGE (4-12%), autoradiography.
Test [3] shares this target. In words: ELISA; levels of endogenous factor H (captured on monoclonal MRCOX23) and C1q (captured on ovalbumin antigen-antibody complexes) in citrated plasma and in the serum from the same plasma; the loss on clotting is taken as binding to clots. For orientation: ELISA stands for enzyme-linked immunosorbent assay.
Test [4] concerns the target fibrin made from purified fibrinogen with thrombin (UniProt P02679). The experiment in a line: radioligand binding; 125I-ligand (100,000 cpm) on fibrin-coated wells in veronal buffer ([…] sodium barbital, […] CaCl2, 0.5 mM MgCl2, pH 7.4) with 20, 75 or 150 mM NaCl; 30 min, 37°C; washes at the same NaCl.
For test [5] the target is unchanged. The experiment in a line: radioligand binding; saturation: fixed 125I-factor H (250,000 cpm, 80 ng/well) mixed with unlabeled factor H (0-5,120 ng/well) on fibrin-coated wells; 30 min, 37°C.
Test [6] deals with fibrin clots formed in human plasma (human (endogenous in plasma)) (UniProt P02679). In words: co-sedimentation; panel of 125I-labelled plasma proteins (25,000 cpm each) present while enhanced clots formed in plasma; 16 h, 37°C; clots washed three times in 10 mM HEPES, 70 mM NaCl, 0.5 mM EDTA, 5 M urea pH 7.4.
For test [7] the target is unchanged. In words: co-sedimentation; clots formed in 45% human plasma with 20 mM CaCl2 in the presence of 125I-ligand (25,000 cpm), 40 min, 37°C, at about 70 mM, 140 mM or 1 M salt; clots spun at 1,000 x g and washed three times in reaction buffer; bound = input minus cpm in supernatants.
The target of test [8] is fibrin made from purified fibrinogen with thrombin (UniProt P02679). The experiment in a line: co-sedimentation; fibrin-only clots: 3.5 mg/ml purified fibrinogen with 125I-ligand (25,000 cpm) in 10 mM HEPES, 70 mM NaCl, 5 mM CaCl2 pH 7.4, clotted with thrombin (8.75 μg/ml), 40 min, 37°C; washed with HEPES-1/2-saline.
The target in test [9] is fibrin clots formed in human plasma (human (endogenous in plasma)) (UniProt P02679). The experiment in a line: co-sedimentation; time course: enhanced clots formed in plasma with 125I-ligand (25,000 cpm), eight times from 0 to 960 min at 37°C; washed with HEPES-1/2-saline (non-denaturing).
Test [10] concerns the target fibrin made from purified fibrinogen with thrombin (UniProt P02679). The experiment in a line: radioligand binding; serial dilutions of 125I-ligand from 500,000 cpm/well on fibrinogen-, fibrin- or BSA-coated Maxisorp wells; 30 min, 37°C; 25 mM HEPES-0.1% Tween 20 pH 7.4 (20 mM in the legend), without or with 5 mg/ml fluid-phase BSA; bound label eluted with 0.1 M NaOH; Scatchard plot.

For test [11], the target named is fibrin clots formed in human plasma (human (endogenous in plasma)) (UniProt P02679). In words: co-sedimentation; enhanced clots: as the plasma clots but with extra fibrinogen (2 mg/ml) added; 40 min, 37°C; 70 mM, 140 mM or 1 M salt; washed with reaction buffer (HEPES-1/2-saline at 70 mM).
Test [12] deals with fibrin made from purified fibrinogen with thrombin (UniProt P02679). In words: radioligand binding; inhibition: 125I-factor H (2 μg/well) premixed on ice with unlabeled factor H (0-30 μg/well) or ovalbumin, on fibrin-coated wells; 30 min, 37°C.

As usually defined, the Kd is a measure of binding affinity in units of concentration. A lower Kd goes with a tighter complex.

Chain of factor H (P08603 19-1231): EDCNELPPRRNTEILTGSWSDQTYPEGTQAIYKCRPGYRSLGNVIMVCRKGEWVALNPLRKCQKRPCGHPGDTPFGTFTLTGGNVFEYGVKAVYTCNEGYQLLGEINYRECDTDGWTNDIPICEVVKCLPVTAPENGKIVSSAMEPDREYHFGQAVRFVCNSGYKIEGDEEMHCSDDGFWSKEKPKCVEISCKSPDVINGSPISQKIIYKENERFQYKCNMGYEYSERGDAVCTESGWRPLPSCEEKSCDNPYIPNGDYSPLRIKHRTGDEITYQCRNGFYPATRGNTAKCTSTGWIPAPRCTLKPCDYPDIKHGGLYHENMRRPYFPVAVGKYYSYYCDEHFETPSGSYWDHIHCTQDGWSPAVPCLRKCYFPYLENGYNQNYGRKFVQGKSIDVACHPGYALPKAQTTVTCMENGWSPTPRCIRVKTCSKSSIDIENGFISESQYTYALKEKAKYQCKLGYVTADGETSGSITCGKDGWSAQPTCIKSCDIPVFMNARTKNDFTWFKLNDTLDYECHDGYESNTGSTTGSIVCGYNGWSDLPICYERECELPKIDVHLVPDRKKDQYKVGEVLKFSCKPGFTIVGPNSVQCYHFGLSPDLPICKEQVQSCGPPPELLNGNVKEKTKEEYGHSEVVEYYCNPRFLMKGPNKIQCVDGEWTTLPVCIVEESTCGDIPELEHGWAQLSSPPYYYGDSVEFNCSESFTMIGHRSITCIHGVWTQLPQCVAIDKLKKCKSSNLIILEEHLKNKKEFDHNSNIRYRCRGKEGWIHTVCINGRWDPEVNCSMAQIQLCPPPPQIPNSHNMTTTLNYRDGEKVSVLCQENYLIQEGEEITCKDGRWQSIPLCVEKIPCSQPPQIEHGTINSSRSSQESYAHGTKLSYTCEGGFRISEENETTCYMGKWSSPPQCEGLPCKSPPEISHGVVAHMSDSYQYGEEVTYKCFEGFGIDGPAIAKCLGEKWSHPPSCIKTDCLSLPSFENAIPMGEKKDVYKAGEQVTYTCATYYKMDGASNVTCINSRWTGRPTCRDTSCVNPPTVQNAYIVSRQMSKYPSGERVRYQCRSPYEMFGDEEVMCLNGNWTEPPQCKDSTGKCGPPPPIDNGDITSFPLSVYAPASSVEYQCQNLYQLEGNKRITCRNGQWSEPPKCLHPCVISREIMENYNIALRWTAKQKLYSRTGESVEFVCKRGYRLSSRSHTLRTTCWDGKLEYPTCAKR
Chain of UniProt P02679 (P02679 whole entry, looked up): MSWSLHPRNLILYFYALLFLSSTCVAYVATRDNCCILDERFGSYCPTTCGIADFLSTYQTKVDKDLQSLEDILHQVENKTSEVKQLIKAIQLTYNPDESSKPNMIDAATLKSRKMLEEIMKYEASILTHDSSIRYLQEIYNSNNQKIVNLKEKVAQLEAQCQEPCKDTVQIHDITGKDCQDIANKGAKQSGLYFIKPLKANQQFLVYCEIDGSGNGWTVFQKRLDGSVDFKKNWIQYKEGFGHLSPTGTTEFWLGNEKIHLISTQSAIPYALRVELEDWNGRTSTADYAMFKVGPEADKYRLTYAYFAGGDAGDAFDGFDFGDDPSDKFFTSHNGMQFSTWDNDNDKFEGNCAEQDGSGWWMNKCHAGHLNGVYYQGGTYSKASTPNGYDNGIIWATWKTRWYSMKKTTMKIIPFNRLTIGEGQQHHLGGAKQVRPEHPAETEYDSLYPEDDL

Regarding “factor H (from UniProt P08603 19-1231) (natural protein)”, in test [1], the percent bound at 30 min, after urea wash amounted to 13%; the percent bound at 96 min, after urea wash was found to be 18%; the percent bound at 960 min, after urea wash stood at 32.5%. The percent of 125I-factor H in the large cross-linked aggregate that did not enter the gel in [2] was 5.2%. Also, the percent of the plasma level lost in the serum of the same plasma (healthy volunteer sample) in test [3] amounted to 38%. This substance gave a binding at 75 mM NaCl relative to that at 20 mM NaCl in test [4] of less than 50%. This substance also registered a percent of input bound at saturation (input 3.5 μg/well) in test [5] of 0.1%. For the same substance, in test [6], the Protein incorporated into fibrin clots (%) worked out at 28.7% and the percent bound to fibrin clots amounted to 30%. Besides, the percent bound to plasma clots at 70 mM salt in test [7] came to 21.5%. In test [8], this substance came in with a percent bound to fibrin-only clots (HEPES-1/2-saline wash) of 19%. Also, in [9], the percent bound at 30 min, non-denaturing wash was determined as 22% and the percent bound at 96 min, non-denaturing wash came to 26%. In test [10], this substance gave a Kd of 0.055 nM and a percent of input bound (500,000 cpm/well) of 1.7%. In [11], the fold increase of percent bound, enhanced clots over plasma clots without added fibrinogen, at 140 mM NaCl was 6 fold and the percent bound to enhanced plasma clots (HEPES-1/2-saline wash) was 21.5%. For the same substance, the percent inhibition of the binding of 125I-factor H at an equal molar ratio of unlabeled to labeled factor H in test [12] worked out at 48%.
As for plasminogen (natural protein), in test [6], the Protein incorporated into fibrin clots (%) is 32.8% and the percent bound to fibrin clots is 31%.

Values taken from paper PMC11199686.
